Experimental data as given in PMC3677877 (PLoS ONE, 2013).

T1: mature RgpB from P. gingivalis HG66 (Porphyromonas gingivalis HG66, UniProt P95493 230-736)
T1 chain: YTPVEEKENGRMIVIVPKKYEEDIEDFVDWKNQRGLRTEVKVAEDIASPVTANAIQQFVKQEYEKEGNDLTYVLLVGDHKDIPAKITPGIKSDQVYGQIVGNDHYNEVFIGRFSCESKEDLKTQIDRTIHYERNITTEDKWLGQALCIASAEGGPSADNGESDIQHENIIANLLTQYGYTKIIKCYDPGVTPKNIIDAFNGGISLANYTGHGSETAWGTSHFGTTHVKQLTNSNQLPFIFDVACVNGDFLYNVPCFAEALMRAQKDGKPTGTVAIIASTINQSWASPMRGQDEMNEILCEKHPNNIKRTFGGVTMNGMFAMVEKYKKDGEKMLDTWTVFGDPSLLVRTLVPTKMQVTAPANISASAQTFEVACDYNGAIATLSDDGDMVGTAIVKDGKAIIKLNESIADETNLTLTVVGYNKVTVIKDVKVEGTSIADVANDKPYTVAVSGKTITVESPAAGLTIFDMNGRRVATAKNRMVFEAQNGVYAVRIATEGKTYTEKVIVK

B1: recombinant RgpB propeptide (thrombin-cleaved) (domain or fragment)
chain: QPAERGRNPQVRLLSAEQSMSKVQFRMDNLQFTGVQTSKGVAQVPTFTEGVNISEKGTPILPILSRSLAVSETRAMKVEVVSSKFIEKKDVLIAPSKGVISRAENPDQIPYVYGQSYNEDKFFPGEIATLSDPFILRDVRGQVVNFAPLQYNPVTKTLRIYTEIVVAVSETAEAGQNTISLVKNSTFTGFEDIYKSVFMNYEATR
modifications: Text prints 25-222, but the reverse primer encodes FMNYEATR-stop (end at 229), and 209 aa = GSHM vector remnant + 205 residues (25-229). The GSHM remnant left after thrombin cleavage is omitted. …

How the values were obtained:
[1] = molecular target: papain (UniProt P00784)
Sequence of papain (P00784 134-345): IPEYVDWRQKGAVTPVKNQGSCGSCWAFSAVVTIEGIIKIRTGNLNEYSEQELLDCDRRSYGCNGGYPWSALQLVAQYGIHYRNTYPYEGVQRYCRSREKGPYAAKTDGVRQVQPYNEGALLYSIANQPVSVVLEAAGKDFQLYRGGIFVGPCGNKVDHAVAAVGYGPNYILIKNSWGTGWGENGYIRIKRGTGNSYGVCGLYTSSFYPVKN

[2] = molecular target: caspase 3 (UniProt P42574)
Sequence of caspase 3 (P42574 whole entry, the tested form may be a part): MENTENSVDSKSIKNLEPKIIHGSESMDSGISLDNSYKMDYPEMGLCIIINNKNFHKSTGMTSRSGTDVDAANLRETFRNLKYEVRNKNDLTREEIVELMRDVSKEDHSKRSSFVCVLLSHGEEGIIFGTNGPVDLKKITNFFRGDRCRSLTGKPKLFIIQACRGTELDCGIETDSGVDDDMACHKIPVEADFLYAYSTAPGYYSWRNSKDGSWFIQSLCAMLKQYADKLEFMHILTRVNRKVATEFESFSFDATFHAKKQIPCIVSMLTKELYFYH

[3] = molecular target: rKgp: mature recombinant Kgp catalytic domain with the ABM1 motif (Gly681-Ala710) deleted (Porphyromonas gingivalis W50)
[4] = molecular target: T1, mature RgpB from P. gingivalis HG66; test: enzyme inhibition kinetics; conditions: both partners purified

Row | Molecule | % proteolytic activity of papain (2.75 mg/L) with RgpB-PP at 100 mg/L, substrate BapNA (% proteolytic activity) [1] | % proteolytic activity of caspase 3 (60 Units) with RgpB-PP at 100 mg/L, substrate Ac-DEVD-pNa (200 µM) (% proteolytic activity) [2] | % proteolytic activity of Kgp (0.0075 mg/mL) with RgpB-PP at 50 mg/L, substrate GPKNA (% proteolytic activity) [3] | Ki [4]
1 | recombinant RgpB propeptide (thrombin-cleaved) (from UniProt P95493 25-222) (domain or fragment) | 103 | 133 | 118 | –
2 | B1 | – | – | – | 12 nM
